Two molecules from patent US20200340992, “DNA APTAMER […] BINDING TO ESAT6, AND USE […]” (MD APTUS INC., published 2020) can be followed below.

Data set [1] addresses ESAT6 (early secretory antigenic target 6 kDa) (Mycobacterium tuberculosis H37Rv, UniProt P9WNK7 P9WNK7:1-95). The experiment in a line: fluorescence of Cy3-aptamer bound to ESAT6 on magnetic beads; 20 mM Tris, 50 mM NaCl, 5 mM KCl, 5 mM MgCl2, pH 8.0. Particulars: label: Cy3. On the procedure: 400 pmole of ESAT6 was mixed with 10 μL of magnetic beads, and then incubated in 100 μL of a binding buffer (20 mM Tris, 50 mM NaCl, 5 mM KCl, 5 mM MgCl₂, pH 8.0) for 1 hour. To separate unbound ESAT6, washing was performed twice with a binding buffer. Subsequently, the resulting mixture was incubated together with various concentrations of a Cy3-labeled aptamer, and an unbound aptamer was removed by washing. The amount of Cy3-labeled ssDNA aptamer bound to the magnetic beads with ESAT6 immobilized thereon was measured by fluorescence measurement (1420 Victor Multilabel counter, PerkinElmer, USA) by separating only Cy3-labeled ssDNA bound to ESAT6. As a result, as shown in FIG. 3 and Table 2 below, the Kd value of the DNA aptamer having a EG11(44) base sequence was measured.

Data set [2] deals with T1, TB7.7 (UniProt P9WJ11 P9WJ11:1-81).
T1 sequence: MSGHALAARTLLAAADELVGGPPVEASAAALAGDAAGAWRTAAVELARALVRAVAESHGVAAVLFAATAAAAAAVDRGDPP
The experiment in a line: electrochemical impedance specificity test; 10 pM protein in PBS. The source says: (§1) At this time, each protein was mixed at a concentration of 10 pM with PBS and used for detection.

The target in data set [3] is CFP-10 (UniProt P9WNK5 P9WNK5:1-100). The description is as above.
CFP-10, sequence (P9WNK5 whole entry, one chain of several): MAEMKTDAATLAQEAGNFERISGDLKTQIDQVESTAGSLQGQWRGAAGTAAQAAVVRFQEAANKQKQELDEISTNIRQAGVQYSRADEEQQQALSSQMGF
From the text: as §1

ESAT6 (early secretory antigenic target 6 kDa), sequence (P9WNK7 whole entry, one chain of several): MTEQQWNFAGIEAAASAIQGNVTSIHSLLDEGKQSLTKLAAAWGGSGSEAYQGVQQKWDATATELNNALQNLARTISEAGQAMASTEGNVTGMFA

Consider CGAGGTAGCTTACCCGCTTATGTTCACTGTGGGTTGCTGGCTCG (ssDNA) [EG11(44)], for which the dissociation constant (Kd) – broadly, the constant that tells how readily two partners part at equilibrium – in data set [1] worked out at 31.4 nM.
On to CGAGGTAGCTTACCCGCTTATGTTCACTGTGGGTTGCTGGCTCG (ssDNA) [EG11(44) unlabelled], for which the binding result in data set [2] and in data set [3] was “no binding” throughout.
